For orientation: Kd means the free concentration of one partner at which half of the binding sites on the other are occupied at equilibrium, for simple one-to-one binding.

What all share (conditions): FA: 50 mM NaCl, 50 mM Tris-HCl pH 8.0, 5 mM DTT, 5 mM MgCl2, room temp, 30 nM FAM substrate, EMSA: 10 mM NaCl, 0.2 mM EDTA, 5 mM b-mercaptoethanol, 0.1% NP-40 …
A general note: A gel shift assay detects complexes by their altered migration in electrophoresis.

Data set [1] concerns PARP1 (human). The experiment in a line: fluorescence anisotropy. (In general: In fluorescence polarisation assays a small probe gives low polarisation when free and higher when bound to something large.)
In data set [2] the test system is PARP2 (mouse). As to the kind of experiment: fluorescence anisotropy.
The subject of data set [3] is PARP1 (human). As to the kind of experiment: EMSA.
Data set [4] has as its system PARP2 (mouse). As to the kind of experiment: EMSA.
Setting [5] is: single-nt gap with 5'-dRP at the U of primer S3 (UDG + APE1).
Setting [6] is: single-nt gap with 5'-dRP at the U of primer S1 (UDG + APE1), midward-oriented.
Setting [7] is: AP site at the U of primer S3 (UDG-generated).
Where [8] appears, read: single-nt gap with 5'-dRP at the U of primer S3 (UDG + APE1), outward-oriented.
The mark [9] stands for this setting: single-nt gap with 5'-dRP at the U of primer S1 (UDG + APE1).
Setting [10] is: AP site at the U of primer S3 (UDG-generated), outward-oriented.
The mark [11] stands for this setting: AP site at the U of primer S1 (UDG-generated), midward-oriented.
[12] abbreviates: AP site at the U of primer S1 (UDG-generated).

gap out-DNA: the Kd in the data set on PARP1 (human) [1] (setting [5]) was 29 nM; in the data set on PARP2 (mouse) [2] (setting [5]) it was 58 nM.

As for gap mid-NCP, the values for the Kd with PARP1 (human) [1] (setting [6]) and in the data set on PARP2 (mouse) [2] (setting [6]) were 14 nM and 128 nM, respectively.

For the substance AP out-DNA, the figures for the Kd in the data set on PARP1 (human) [1] (setting [7]) and with PARP2 (mouse) [2] (setting [7]) were 23 nM and 811 nM, respectively.

As to native mid-NCP, the Kd was 11 nM in the data set with PARP1 (human) [1] and 151 nM in the data set on PARP2 (mouse) [2].

Regarding native out-NCP, the Kd worked out at 65 nM with PARP1 (human) [3], 192 nM in the data set with PARP2 (mouse) [4], 14 nM in the data set on PARP1 (human) [1] and 156 nM in the data set on PARP2 (mouse) [2].

As to gap out-NCP, the Kd in the data set on PARP1 (human) [3] (setting [8]) was 38 nM; in the data set with PARP2 (mouse) [4] (setting [8]) it was 57 nM; in the data set on PARP1 (human) [1] (setting [8]), 10 nM; in the data set on PARP2 (mouse) [2] (setting [8]), 14 nM.

For native mid-DNA, the dissociation constant Kd came to 14 nM in the data set with PARP1 (human) [1] and 608 nM in the data set on PARP2 (mouse) [2].

gap mid-DNA: the Kd is 25 nM in the data set with PARP1 (human) [1] (setting [9]) and 145 nM in the data set on PARP2 (mouse) [2] (setting [9]).

Consider AP out-NCP, for which the Kd amounted to 61 nM in the data set with PARP1 (human) [3] (setting [10]), 130 nM in the data set with PARP2 (mouse) [4] (setting [10]), 7 nM in the data set with PARP1 (human) [1] (setting [10]) and 160 nM in the data set on PARP2 (mouse) [2] (setting [10]).

AP mid-NCP: the values for the Kd in the data set with PARP1 (human) [1] (setting [11]) and in the data set on PARP2 (mouse) [2] (setting [11]) were 12 nM and 162 nM, respectively.

Take native out-DNA: the Kd in the data set on PARP1 (human) [1] was found to be 14 nM; with PARP2 (mouse) [2] it was 839 nM.

For AP mid-DNA, the results for the Kd in the data set on PARP1 (human) [1] (setting [12]) and in the data set with PARP2 (mouse) [2] (setting [12]) were 23 nM and 690 nM, respectively.

Source of the values: PMC7921663.
